Results reported in patent US20070111265A1, “Ligands for mineralocorticoid receptor (MR) and methods for screening for or designing MR ligands” (Van Andel Research Institute, priority 2005, published 2007).

Key:
[1] = molecular target: VP16-MR LBD (residues 727-984) (human) (UniProt P08235); experiment: cell-based or functional assay
[2] = molecular target: VP16-MR LBD (K782E) (human) (UniProt P08235); experiment: cell-based or functional assay
Sequence of VP16-MR LBD (K782E) (human) (P08235 727-984 K782E): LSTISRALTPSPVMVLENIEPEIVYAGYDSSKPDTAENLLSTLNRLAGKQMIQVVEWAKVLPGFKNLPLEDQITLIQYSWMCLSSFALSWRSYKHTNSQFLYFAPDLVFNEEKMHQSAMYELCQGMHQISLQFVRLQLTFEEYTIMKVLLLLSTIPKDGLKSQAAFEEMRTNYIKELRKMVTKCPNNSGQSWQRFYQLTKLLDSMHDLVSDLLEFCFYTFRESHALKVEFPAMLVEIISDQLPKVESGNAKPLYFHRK

Sequence of VP16-MR LBD (residues 727-984) (human) (P08235 727-984 limits assumed): as the sequence (P08235 727-984 K782E) above, with E56K counted along it

Q: What does the source list for “Gal4-SRC1-4 (GAL4-DBD fused with SRC1 residues 1240-1441) (from UniProt P04386 1-147; Q15788 1240-1441)”?
A: activation of the reporter driven by the GAL4 DNA-binding sites (mammalian two hybrid, luciferase) [1]: 7 fold; activation of the reporter driven by the GAL4 DNA-binding sites (mammalian two hybrid, luciferase) [2]: 1.7 fold
